Test: yeast display, Sf9 membrane polyspecificity reagent, FACS + sequencing; frameworks hold sequencing errors
Outline: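 Sorting gates, low and high (top ~1%), were placed on anti-HA fluorescence to track expression and on streptavidin fluorescence to track reagent binding. A clone's polyreactivity label is taken from the gate it came out of. The reagent was 10% biotinylated, detergent-solubilized Sf9 membrane, applied for 1 hour at 4 °C to galactose-induced yeast display cells.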

Row | Sequence | polyreactivity (PSR sort gate)
1 | QVQLVESGGGLVQAGGSLRLSCAASGSIFGGYTMGWYRQPPGKERELVATISRRGGRTYYADSVKGRFTISRDNAKNTVYLQMNSLKPEDTAVYYCAARWGRGLEFDYWGQGTQVTVSS | high polyreactivity
2 | QVQLVESGGGLVQAGGSLRLSCAASGSIFGHNTMGWYRPAPGKERELVAAITWNGGRTYYADSVKGRFTISRDNAMNTVYLQMNSLKPEDTAVYYCNAVVKTYAYKAHRYPSTRLNYWGQGTQVTVSS | high polyreactivity
3 | QVQLVESGGGLVQAGGSLRLSCAASGSIFGINVMGWYRQAPGKERELVAAITSGTSTYYADSVKGRFTISRDNANNTVYLQMNSLKPEDTAVYYCAALWSSRYVVHPQWYDYWGQGTQVTVSS | low polyreactivity
4 | QVQLVESGGGLVQAGGSLRLSCAASGSIFGIYAKGWYRQAPGKERELVAAITTTGGTSDYADSVKGRFTISRENAKNTVYVQMKSLKPVDTAVYYCAADAYYYWYYSLDYYYWGQGTQVTVSS | high polyreactivity
5 | QVQLVESGGGLVQAGGSLRLSCAASGSIFGIYAMGWYRPAPGKERELVATINSRGTTNYADSVKGRFTISRDNAKNTVYLQMNSLKPEDTAVYYCAARFSTYRGKRKGYEYWGQGTQVTVSS | high polyreactivity
6 | QVQLVESGGGLVQAGGSLRLSCAASGSIFGIYAMGWYRQAPGKERELVAAISGSGGDTYYADSVKGRFTISRDNAKNTVYLQMNSLKPEDTAVYYCAATTGAAYPFDYWGQGTQVTVSS | low polyreactivity
7 | QVQLVESGGGLVQAGGSLRLSCAASGSIFGKNAMGWYRQAPGKERELVAAITSTGTSTYYADSVKGRFTISRDTAKNTVYLQMNSLKAEDTAVYYCADETARWDYGYWGQGTQVTVSS | low polyreactivity
8 | QVQLVESGGGLVQAGGSLRLSCAASGSIFGKYAMGWYRQAPGKERELVAAISYSGGSTYYADSVKGRFTISRDNAKNTVYLQMNSLKPEDTAVYYCAVRGWGSAGKYDYWGQGTQVTVSS | high polyreactivity
9 | QVQLVESGGGLVQAGGSLRLSCAASGSIFGKYAMGWYRQAPGKERELVATINRGGGGTYYADSVKGRFTISRDNAKNTVYLQMNSLKPEDTAVYYWAVSYRSYVWYGYWGQGTQVTVSS | high polyreactivity
10 | QVQLVESGGGLVQAGGSLRLSCAASGSIFGLNAMGWYRQAPGKERELVAAISGGSTNYADSVKGRFTISRDNAKNTVYLQMNSLKPEDTAVYYCAARARRRYYYWGQGTQVTVSS | high polyreactivity
11 | QVQLVESGGGLVQAGGSLRLSCAASGSIFGLYAMGWYRQAPGKERELVAAINWNGGDTYYADSVKGRFTISRDNAKNTVYLQMNSLKPEDTAVYYCAAELYRYGIRRRHYDYWGQGTLVTVSS | low polyreactivity
12 | QVQLVESGGGLVQAGGSLRLSCAASGSIFGLYAMGWYRQAPGKERELVAAISRSGGSTYYADSVKGRFTISRDNAKNTVYLQMYSLKPEDSAVYDCNALRWSQYTYSSRLGHFDSWGQGTQVTVSS | high polyreactivity
13 | QVQLVESGGGLVQAGGSLRLSCAASGSIFGLYAMGWYRQAPGKERELVAAISTSSGRTYYADSVKGRFTISRDNAKNTVYLQMNSLKPEDTAVYYCNARVYVTSGFRYDYWGQGTQVTVSS | high polyreactivity
14 | QVQLVESGGGLVQAGGSLRLSCAASGSIFGLYAMGWYRQAPGKERELVAAITDSTGSTSYADSVKGRFTISRDNAKNTVYLQMTSLKPEDTAVYYCAAGQGRWRHGFDYWGQGTQVTVSS | low polyreactivity
15 | QVQLVESGGGLVQAGGSLRLSCAASGSIFGNYVMGWYRQSPGKERELVAAISWSGGTNYADSVKGRFTISRDNAKNTVYLQMNSLKPEDTAVYYCATVIRGHKRFAYGYWGQGTQVTVSS | high polyreactivity
16 | QVQLVESGGGLVQAGGSLRLSCAASGSIFGPNAMGRSRQAPGKERELVAAISWVGGSTYYADSVKGRFTISGDIAKNTVYLQMNSLKPEDTAVYYCNASGYHDTALRYDYWGQGTQVTVSS | low polyreactivity
17 | QVQLVESGGGLVQAGGSLRLSCAASGSIFGPNAMGWYRQAPGKERELVAAITLSGGSTYYADSVKGRFTISRDNAKNTVYLQMNSLKPEDTAVYYCNADLLPADAPLWVTGGDYWGQGTQVTVSS | low polyreactivity
18 | QVQLVESGGGLVQAGGSLRLSCAASGSIFGPNAMGWYRQAPGKERELVAAITSGSSTKYADSVKGRFTISRDNATNTVYLQMNSLKPEDTAVYYCAASGTSTWKYGYWGQGSQVTVSS | low polyreactivity
19 | QVQLVESGGGLVQAGGSLRLSCAASGSIFGPYAMGGYRQAPGKERELVAAISSGGSTNYADSVKGRFTISRDNAKNTVYLQMNSLKPEDTAVYYCAADRKYFYLWLDQEHRYYWGQGTQVTVSS | low polyreactivity
20 | QVQLVESGGGLVQAGGSLRLSCAASGSIFGPYAMGWYRQAPGKERELVAAISNGGTTYYADSVKGRFTISRDNAKYTVYLQMNSLKPEDTAVYYCNAEQYLYYILGNYDYWGQGTQVTVSS | low polyreactivity
21 | QVQLVESGGGLVQAGGSLRLSCAASGSIFGPYAMGWYRQAPGKERELVAAISTRGGRTYYADSVKGRFTISRDNAKNTVYLQMNSLKPEDTAVYYCNARRSDSRSYDYWGQGTQVTVSS | high polyreactivity
22 | QVQLVESGGGLVQAGGSLRLSCAASGSIFGPYAMGWYRQAPGKERELVAVISKRGGSTYYADSVKGRFTISRDNAKNTVYLQMNSLKPEDTAVYYCAADYDWDPYRIYYLASYDYWGQGTQVTVSS | high polyreactivity

Row | Sequence | polyreactivity (PSR sort gate)
23 | QVQLVESGGGLVQAGGSLRLSCAASGSIFGQNAMGWYRQAPGKERELVAAITSGAGITYYADSVKGRFTISRDNAKNTVYLQMNSLKPEDPAVYYCIAVPSWSPSPLFDYWGQGTQVTVSS | low polyreactivity
24 | QVQLVESGGGLVQAGGSLRLSCAASGSIFGRNALGWSRQAPGKERELVAAIRDSGTSTYYADSVKGRFTISRDNAKNTVYLQMNSLKPEDTAVYYCAASRRPGYTYGYWGQGTQVTVSS | high polyreactivity
25 | QVQLVESGGGLVQAGGSLRLSCAASGSIFGRNAMGWYRQAPGKEREFVATITSRGGRTYYADSVKGRFTISRDNAKNTVYLQMNSLKPEYTAVYYCAADTYISTLKKYRLGDYWGQGTQVTVSS | low polyreactivity
26 | QVQLVESGGGLVQAGGSLRLSCAASGSIFGRYAMGWYRQAPGKEREFVSAISSSGGRTYYADSVKGRFPISRDNAKNTVYLQMNSLKPEDTAVYYCATEGYYSRTRLYLEYDYWGQGTQVTVSS | high polyreactivity
27 | QVQLVESGGGLVQAGGSLRLSCAASGSIFGRYAMGWYRQAPGKERELVAAISRTGVSTYYADSVKGRFTISRDNAKNTVYLQMKSLKTEDSAVYYCKAVRLSWQYTYYYWGQGTQVTVSS | high polyreactivity
28 | QVQLVESGGGLVQAGGSLRLSCAASGSIFGRYAMGWYRQAPGKERELVAAITFSGASTYYADSVKGRFTISRDNAKNTVYLQMNSLKPEDTAVYYCAADGGTIEGDYWGQGTQVTVSS | low polyreactivity
29 | QVQLVESGGGLVQAGGSLRLSCAASGSIFGRYAMGWYRQAPGKERELVAAITGSGGTTYYADSVKGRFTISRDNAKNTVYLQMNSLKPEDTAVYYCAADPQVYYSGRPRYDYWGQGTQVTVSS | high polyreactivity
30 | QVQLVESGGGLVQAGGSLRLSCAASGSIFGRYAMGWYRQAPGKERELVAVITSGGSTNYADSVKGRFTISRDKAKNTVYLQMNSLKPEDTAVYYCAVRPYELHRLADQPGGDDYWGQGTQVTVSS | low polyreactivity
31 | QVQLVESGGGLVQAGGSLRLSCAASGSIFGRYAMGWYRQAPGNERELVAGICSRGTSTYYADSVKGRFTISRDNAKNTVYLQMNSLKPEDTAVYYCNAYPYYIVGSRYDYWGQGTQVTVSS | high polyreactivity
32 | QVQLVESGGGLVQAGGSLRLSCAASGSIFGRYGAMGWYRQAPGKERELVAAIRTSGVSTYYADSVKGRFTISRDNAKNTVYLQMNSLKPEDTAVYYCAKGYNSYNLGKYGYWGQGTQVTVSS | low polyreactivity
33 | QVQLVESGGGLVQAGGSLRLSCAASGSIFGRYGMGWYRQAPGKERELVAAITSGTRTNYADSVKGRFTISRDNAKNTVYLQMNSLKPEDTAVYYCNALRLRGNYEYGYWGHGTQVTVSS | low polyreactivity
34 | QVQLVESGGGLVQAGGSLRLSCAASGSIFGSNAMGWYRQAPGKERELVAAITESGGDTYYADSVKGRFTISRDNAKNTVYLQMNSLKPEDTAVYYCAARYFGVIVDVSLFREYGSWGQGTQVTVSS | low polyreactivity
35 | QVQLVESGGGLVQAGGSLRLSCAASGSIFGSYAMGWYRPAPGKERELVAAITIADITYYADSVKGRFTISRDNAKNTVYLQMNSLKPEDTAVYYCAAPYSPLWYPGGDYWRQGTQVTVSS | low polyreactivity
36 | QVQLVESGGGLVQAGGSLRLSCAASGSIFGSYAMGWYRQAPGKERELVAAITYSGTSTYYADSVKGRFTISRDNAKNTVYLQMNSLKPEDTAVYYCNAVSRHRSKFDYWGQGTQVTVSS | high polyreactivity
37 | QVQLVESGGGLVQAGGSLRLSCAASGSIFGSYAMGWYRQAPGKERELVAVITSSGNTKYADSVKGRFTISRDNAKNTVYLQMNSLKPEDTAVYYCAARFITWGSQYSFRSMDYWGQGTQVTVSS | high polyreactivity
38 | QVQLVESGGGLVQAGGSLRLSCAASGSIFGSYAMGWYRQGAGKERELVAGITYDGGSTYYADSVKGRFTISRDNAKNTVYLQMNSLKPEDTAVYYCAAVDIRLEWDFWFQPTYEYWGQGTQVTVSS | low polyreactivity
39 | QVQLVESGGGLVQAGGSLRLSCAASGSIFGTNAMGGYRQAPGKERELVAAIRGSGGRTYYADSVKGRFTISRDKAKNTVYLEMNSLKPEDSAVYYCAAPGNPYCWGYNYYYWGQGTQVTVSS | high polyreactivity
40 | QVQLVESGGGLVQAGGSLRLSCAASGSIFGTNAMGWYRQAPGKERELVAAIRGSGGRTYYADSVKGRFTISRDNAKNTVYLQMNSLKPEDTAVYYCAARWGPYYGGVRYGYWGQGTQVTVSS | high polyreactivity
41 | QVQLVESGGGLVQAGGSLRLSCAASGSIFGTNVMGWYRQAPGKERELVAAITASGSRTYYADSVKGRFTISRDNAKNTVYLQMNSLKPEDTAVYYCATVSRFGFKDFDYWGQGTQVTVSS | high polyreactivity
42 | QVQLVESGGGLVQAGGSLRLSCAASGSIFGTYAKGWYRQAPGKERELVADISLSGGSTYYADSVKGRFTISRDTAKKSVYLQMNSLKPEDNAVYYCNAESTAYGYVAVYRYDYWGQGTQVTVSS | low polyreactivity
43 | QVQLVESGGGLVQAGGSLRLSCAASGSIFGTYAMGWYRQAPGKERELVAAITGRDGITYADSVKGRFTISCDNAKNTVYLQMNSLKPEDTAVYYCAAVSHGVYYQYRRRYYSWGQGTQVTVSS | high polyreactivity

Reference: the nanobody polyreactivity screen of Harvey et al. (2022)
